Assay results taken from patent publication US20050222029A1 (MYRIAD GENETICS, published 2005).

B1: Tropomyosin TM30pl (TPM4) 79-142 (other, human, UniProt P67936 79-142, looked up)
chain: EAEKAADESERGMKVIENRAMKDEEKMEIQEMQLKEAKHIAEEADRKYEEVARKLVILEGELER
notes: prey (Gal4 AD-HA fusion)
B2: Tropomyosin TM30pl (TPM4) 91-142 (other, human, UniProt P67936 91-142, looked up)
chain: MKVIENRAMKDEEKMEIQEMQLKEAKHIAEEADRKYEEVARKLVILEGELER
notes: prey (Gal4 AD-HA fusion)
B3: Zink finger protein 231 (ZNF231) 2308-2438 (other, human, UniProt Q9UPA5 2308-2438, looked up)
chain: EEPLPTTTPAAIKEAAGAPAPAPLAGQKPPADAAPGGGSGALSRPGFEKEEASQEERQRKQQEQLLQLERERVELEKLRQLRLQEELERERVELQRHREEEQLLVQRELQELQTIKHHVLQQQQEERQAQF
notes: prey (Gal4 AD-HA fusion)
B4: Chromosome-associated polypeptide HCAP (HCAP) 208-300 (other, human, UniProt Q9UQE7 208-300, looked up)
chain: EELAQYQKWDKMRRALEYTIYNQELNETRAKLDELSAKRETSGEKSRQLRDAQQDARDKMEDIERQVRELKTKISAMKEEKEQLSAERQEQIK
notes: prey (Gal4 AD-HA fusion)
B5: Rho-associated (ROCK1) 462-617 (enzyme, human, UniProt Q13464 462-617, looked up)
chain: KIMKELDEEGNQRRNLESTVSQIEKEKMLLQHRINEYQRKAEQENEKRRNVENEVSTLKDQLEDLKKVSQNSQLANEKLSQLQKQLEEANDLLRTESDTAVRLRKSHTEMSKSISQLESLNRELQERNRILENSKSQTDKDYYQLQAILEAERRDR
notes: prey (Gal4 AD-HA fusion); also called ROK; p160
B6: GrpE-Like protein cochaperone (PN19062) 40-89 (other)
chain: LEEDMGQSEQKADPPATEKTLLEEKVKLEEQLKETVEKYKRALADTENLR
notes: prey (Gal4 AD-HA fusion); also called PN19062/HMGE; GRPEL1
B7: Intersection 1 437-584 (other, human, UniProt Q15811 437-584, looked up)
chain: AKRELERQRQLEWERNRRQELLNQRNKEQEDIVVLKAKKKTLEFELEALNDKKHQLEGKLQDIRCRLTTQRQEIESTNKSRELRIAEITHLQQQLQESQQMLGRLIPEKQILNDQLKQVQQNSLHRDSLVTLKRALEAKELARQHLRD
notes: prey (Gal4 AD-HA fusion); also called Intersectin 1; ITSN1
B8: GTPase-activiating protein 1 1406-1547 (other, human, UniProt P46940 1406-1547, looked up)
chain: EILETPATSEQEAEHQRAMQRRAIRDAKTPDKMKKSKSVKEDSNLTLQEKKEKIQTGLKKLTELGTVDPKNKYQELINDIARDIRNQRRYRQRRKAELVKLQQTYAALNSKATFYGEQVDYYKSYIKTCLDNLASKGKVSKK
notes: prey (Gal4 AD-HA fusion); also called IQGAP1; IQGAP
B9: Intersection 1 436-547 (other, human, UniProt Q15811 436-547, looked up)
chain: AAKRELERQRQLEWERNRRQELLNQRNKEQEDIVVLKAKKKTLEFELEALNDKKHQLEGKLQDIRCRLTTQRQEIESTNKSRELRIAEITHLQQQLQESQQMLGRLIPEKQI
notes: as for B7
B10: Keratin 5 384-475 (other, human, UniProt P13647 384-475, looked up)
chain: HEISEMNRMIQRLRAEIDNVKKQCANLQNAIADAEQRGELALKDARNKLAELEEALQKAKQDMARLLREYQELMNTKLALDVEIATYRKLLE
notes: prey (Gal4 AD-HA fusion)
B11: Keratin 8 293-394 (other, human, UniProt P05787 293-394, looked up)
chain: AGKHGDDLRRTKTEISEMNRNISRLQAEIEGLKGQRASLEAAIADAEQRGELAIKDANAKLSELEAALQRAKQDMARQLREYQELMNVKLALDIEIATYRKL
notes: prey (Gal4 AD-HA fusion)
B12: Keratin 5 335-473 (other, human, UniProt P13647 335-473, looked up)
chain: LDSIIAEVKAQYEEIANRSRTEAESWYQTKYEELQQTAGRHGDDLRNTKHEISEMNRMIQRLRAEIDNVKKQCANLQNAIADAEQRGELALKDARNKLAELEEALQKAKQDMARLLREYQELMNTKLALDVEIATYRKL
notes: prey (Gal4 AD-HA fusion)
B13: Keratin 5 347-485 (other, human, UniProt P13647 347-485, looked up)
chain: EEIANRSRTEAESWYQTKYEELQQTAGRHGDDLRNTKHEISEMNRMIQRLRAEIDNVKKQCANLQNAIADAEQRGELALKDARNKLAELEEALQKAKQDMARLLREYQELMNTKLALDVEIATYRKLLEGEECRLSGEG
notes: prey (Gal4 AD-HA fusion)
B14: GTPase-activiating protein 1 1463-1568 (other, human, UniProt P46940 1463-1568, looked up)
chain: LKKLTELGTVDPKNKYQELINDIARDIRNQRRYRQRRKAELVKLQQTYAALNSKATFYGEQVDYYKSYIKTCLDNLASKGKVSKKPREMKGKKSKKISLKYTAARL
notes: as for B8
B15: Keratin 5 349-475 (other, human, UniProt P13647 349-475, looked up)
chain: IANRSRTEAESWYQTKYEELQQTAGRHGDDLRNTKHEISEMNRMIQRLRAEIDNVKKQCANLQNAIADAEQRGELALKDARNKLAELEEALQKAKQDMARLLREYQELMNTKLALDVEIATYRKLLE
notes: prey (Gal4 AD-HA fusion)
B16: Mitotic spindle coiled-coil related protein 942-1021 (other, human, UniProt Q96R06 942-1021, looked up)
chain: LGSDKSAFTRVASMVSLQPAETPGMEESLAEMSIMTTELQSLCSLLQESKEEAIRTLQRKICELQARLQAQEEQHQEVQK
notes: prey (Gal4 AD-HA fusion)
B17: GTPase-activiating protein 1 1439-1565 (other, human, UniProt P46940 1439-1565, looked up)
chain: KKSKSVKEDSNLTLQEKKEKIQTGLKKLTELGTVDPKNKYQELINDIARDIRNQRRYRQRRKAELVKLQQTYAALNSKATFYGEQVDYYKSYIKTCLDNLASKGKVSKKPREMKGKKSKKISLKYTA
notes: as for B8
B18: Keratin 5 325-446 (other, human, UniProt P13647 325-446, looked up)
chain: LSMDNNRNLDLDSIIAEVKAQYEEIANRSRTEAESWYQTKYEELQQTAGRHGDDLRNTKHEISEMNRMIQRLRAEIDNVKKQCANLQNAIADAEQRGELALKDARNKLAELEEALQKAKQDM
notes: prey (Gal4 AD-HA fusion)
B19: GTPase-activiating protein 1 1404-1553 (other, human, UniProt P46940 1404-1553, looked up)
chain: LTEILETPATSEQEAEHQRAMQRRAIRDAKTPDKMKKSKSVKEDSNLTLQEKKEKIQTGLKKLTELGTVDPKNKYQELINDIARDIRNQRRYRQRRKAELVKLQQTYAALNSKATFYGEQVDYYKSYIKTCLDNLASKGKVSKKPREMKG
notes: as for B8
B20: GTPase-activiating protein 1 1439-1567 (other, human, UniProt P46940 1439-1567, looked up)
chain: KKSKSVKEDSNLTLQEKKEKIQTGLKKLTELGTVDPKNKYQELINDIARDIRNQRRYRQRRKAELVKLQQTYAALNSKATFYGEQVDYYKSYIKTCLDNLASKGKVSKKPREMKGKKSKKISLKYTAAR
notes: as for B8
B21: Keratin 5 379-452 (other, human, UniProt P13647 379-452, looked up)
chain: LRNTKHEISEMNRMIQRLRAEIDNVKKQCANLQNAIADAEQRGELALKDARNKLAELEEALQKAKQDMARLLRE
notes: prey (Gal4 AD-HA fusion)
B22: Golgi autoantigen (Golgin-84) 198-501 (other, human, UniProt Q8TBA6 198-501, looked up)
chain: SKENVSSNAACPDHTPTPNDDGKSHELSNLRLENQLLRNEVQSLNQEMASLLQRSKETQEELNKARARVEKWNADHSKSDRMTRGLRAQVDDLTEAVAAKDSQLAVLKVRLQEADQLLSTRTEALEALQSEKSRIMQDQSEGNSLQNQALQTFQERLHEADATLKREQESYKQMQSEFAARLNKVEMERQNLAEAITLAERKYSDEKKRVDELQQQVKLYKLNLESSKQELIDYKQKATRILQSKEKLINSLKEGSGFEGLDSSTASSMELEELRHEKEMQREEIQKLMGQIHQLRSELQDMEA
notes: prey (Gal4 AD-HA fusion)
B23: Golgi autoantigen (Golgin-84) 198-497 (other, human, UniProt Q8TBA6 198-497, looked up)
chain: SKENVSSNAACPDHTPTPNDDGKSHELSNLRLENQLLRNEVQSLNQEMASLLQRSKETQEELNKARARVEKWNADHSKSDRMTRGLRAQVDDLTEAVAAKDSQLAVLKVRLQEADQLLSTRTEALEALQSEKSRIMQDQSEGNSLQNQALQTFQERLHEADATLKREQESYKQMQSEFAARLNKVEMERQNLAEAITLAERKYSDEKKRVDELQQQVKLYKLNLESSKQELIDYKQKATRILQSKEKLINSLKEGSGFEGLDSSTASSMELEELRHEKEMQREEIQKLMGQIHQLRSELQ
notes: prey (Gal4 AD-HA fusion)
B24: Kinesin Family Member 5A (KIF5A) 564-725 (other, human, UniProt Q12840 564-725, looked up)
chain: IVGNGEIKLPVEISGAIEEEFTVARLYISKIKSEVKSVVKRCRQLENLQVECHRKMEVTGRELSSCQLLISQHEAKIRSLTEYMQSVELKKRHLEESYDSLSDELAKLQAQETVHEVALKDKEPDTQDADEVKKALELQMESHREAHHRQLARLRDEINEKQ
notes: prey (Gal4 AD-HA fusion)
B25: Accessory proteins BAP31/BAP29 (BAP31) 184-246 (other, human, UniProt P51572 184-246, looked up)
chain: LKADLQKLKDELASTKQKLEKAENQVLAMRKQSEGLTKEYDRLLEEHAKLQAAVDGPMDKKEE
notes: prey (Gal4 AD-HA fusion)
B26: novel protein PN9667 268-422 (other)
chain: KAKEKEVEKIEQNGLALIQNKKEDVSSIVMSTLRELGQTWANLDHMVGQLKILLKSVLDQWSSHKVAFDKINSYLMEARYSLSRFRLLTGSLEAVQVQVDNLQNLQDDLEKQERSLQKFGSITNQLLKECHPPVTETLTNTLKEVNMRWNNLLEE
notes: prey (Gal4 AD-HA fusion)

The binders below were run against T1, Tumor Suppressor (TSG101) 231-391 (human, UniProt Q99816 231-390) (assay: yeast two-hybrid).
T1 construct: bait (Gal4 DBD fusion)
T1 sequence (looked up): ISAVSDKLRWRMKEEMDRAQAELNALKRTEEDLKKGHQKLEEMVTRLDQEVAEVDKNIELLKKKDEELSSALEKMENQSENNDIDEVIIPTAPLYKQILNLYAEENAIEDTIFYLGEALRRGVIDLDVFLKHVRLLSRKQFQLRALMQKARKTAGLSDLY

Binding result, binds:
B1
B2
B3
B4
B5
B6

These binders were tested against T2, Tumor Suppressor (TSG101) 240-391 (human, UniProt Q99816 240-390) (assay: yeast two-hybrid).
T2 construct: range 240-391; bait (Gal4 DBD fusion); also called TSG101 240-390
T2 sequence (looked up): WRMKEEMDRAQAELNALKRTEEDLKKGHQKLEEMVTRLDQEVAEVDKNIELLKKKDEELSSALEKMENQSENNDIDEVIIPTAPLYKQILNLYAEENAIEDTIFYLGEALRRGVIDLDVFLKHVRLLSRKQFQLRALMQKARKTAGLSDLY

Binding result, binds:
B7
B8
B9
B10
B11
B12
B13
B14
B15
B16
B17
B18
B19
B20
B21

What follows are binders tested against T3, Tumor Suppressor (TSG101) 12-326 (human, UniProt Q99816 12-326) (assay: yeast two-hybrid).
T3 construct: bait (Gal4 DBD fusion)
T3 sequence (looked up): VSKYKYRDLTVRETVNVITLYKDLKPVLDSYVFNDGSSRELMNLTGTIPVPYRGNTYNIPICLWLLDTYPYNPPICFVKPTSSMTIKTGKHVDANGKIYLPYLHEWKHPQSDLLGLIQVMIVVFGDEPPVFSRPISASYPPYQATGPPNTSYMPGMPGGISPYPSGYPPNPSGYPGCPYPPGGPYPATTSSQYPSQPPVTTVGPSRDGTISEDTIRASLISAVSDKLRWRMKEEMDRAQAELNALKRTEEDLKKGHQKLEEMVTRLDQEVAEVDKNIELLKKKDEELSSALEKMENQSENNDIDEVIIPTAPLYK

Binding result, binds:
B22
B23
B24
B25
B26
